Assay: soluble on expression in E. coli; label from the status in PepcDB or PDB records
In the case of “DLRRQLRKAVMDHVSDSFLETNVPLLVLIEAAKNGNEKEVKEYAQVFREHANKLIEVANLACSISNNEEGVKLVRMSASQLEALCPQVINAALALAAKPQSKLAQENMDLFKEQWEKQVRVLTDAVDDITSIDDFLAVSENHILEDVNKCVIALQEKDVDGLDRTAGAIRGRAARVIHVVTSEMDNYEPGVYTEKVLEATKLLSNTVMPRFTEQVEAAVEALSSDPAQPMDENEFIDASRLVYDGIRDIRKAVLMI”, the “soluble on expression in E. coli” value is reported as “soluble”.
For “DNYFRIHVKKLPEENKDAQGLWTWDDVEKPSENWPNGALSFKDAKKDDYGYYLDVKLKGEQAKKISFLINNTAGKNLTGDKSVEKLVPKMNEAWLDQDYKVFSYEPQPAGTVRVNYYRTDGNYDKKSLWYWGDVKNPSSAQWPDGTDFTATGKYGRYIDIPLNEAAREFGFLLLDESKGDVKIRKENYKFTDLKNHSQIFLKDDDESIYTNPYYVHD”, the “soluble on expression in E. coli” value was “soluble”.
For “DPTQSVRAYYIQNGDSTKTVIIGQGWTEHVDWIGYVSKIWYDMGYNVLMPSQRGQFLSDGDNLTFGYQDKYDWLNWVKMVDERNGADSQVVFYGQSLGADTVLEAASVPGLSKSVKAVVSDAGYATLPELGSSLYNKAITAVSNALQSIGLPAITSLPFLSYDKIVAAMNARLIKEQGFSVDDLSATDAASKITIPLLLIHTQDDAFIPYTQSLELAAANHSANQEVWILPGTVGGHAAANNAILQYRQHLLAFLTPLLSVADAED”, the “soluble on expression in E. coli” value was “not soluble”.
For “DQVGIWGNSPTAHRGLAVAARHAAPLLRVEDAFLRSLFPGRAGEPPLGLLLDRAGVHFDPTTPSDLEQLLTSAPLDDTTLLNRARDAMARIRENHLSKYCATDPDLPLPEPGYVLVIDQTRGDASVTASGGNDALFREMLVFAQEEHPGARVLIKTHPETAAGFRPGYYGERDISVRVSLYDAPLSPWALLDGAVGVYTLSSQLGFEAILAGHKPRVFGQPFYAGWGLTLDEHPVPRRERRLTRAQLFAAAMILYPTW”, the “soluble on expression in E. coli” value was “not soluble”.
For “DRCRYTLCCDGALKAVSACLHESESCLVPGDCCRGKSRLTLCSYGEGGNGFQCPTGYRQC”, the “soluble on expression in E. coli” value was “soluble”.
For “DRICTNCCAGTKGCKYFSDDGTFVCEGESDPRNPKACTLNCDPRIAYGVCPRSEEKKNDRICTNCCAGTKGCKYFSDDGTFVCEGESDPRNPKACPRNCDPRIAYGICPLA”, the “soluble on expression in E. coli” value was “soluble”.
For “DRLTVVKQYVDNVLNKASDTYHGDKPSPLLADGVDPRTGQQLEWIFPDGRRAVLSNFSAQQNLMRVMSGLSQLSGDPRYQKRAEDIVRYHFQNYQDPSGLLYWGGHRFVDLKTLQPEGPSEKEMVHELKNAYPYYDLMFSVDSDATARFIRGFWNAHVYDWRILETSRHGEYGKPMGALWESKFEQQPPFFATKGLSFLNAGNDLIYSASLLYKHQQDQGALTWAKRLADQYVLPRDAKTGLGVYQFTQALKREEPTDDADTHSKFGDRAQRQFGPEFGPTALEGNMMLKGRTSTLYSENALMQLQLGKDLGPQGQDLLKWTVDGLKAFAKYAYNDQDNTFRPMIANGQDLSNYTLPRDGYYGKKGTVLKPYKAGNEFLISYARAYAIDNDPLLWKVARGIANDQGLGDIGTAPGKEVKVNMDTTNSDPYALFALLDLYHASQVADYRKLAEKIGDNIIKIRYIDGFFMASSDRQYADVDAIEPYALLALEASLRNKPQAVAPFLNGAGFTEGAYRMDDGSARVSTRDNELFLLNVGEKLQPN”, the “soluble on expression in E. coli” value was “soluble”.
In the case of “DRYCLTAPNYRLKSLQKKASTSAGRITVPRLSVGSVTSRPSTPTLGTPTPQTMSVSTKVGTPMSLTGQRFTVQMPTSQSPAVKASIPATSAVQNVLINPSLIGSKNILITTNMMSSQNTANESSNALKRKR”, the “soluble on expression in E. coli” value is reported as “soluble”.
For “DTTERKRREKRLEETSSRLEALFENSPDMIDVLDADGTICEVNQRFCAELGYDESEVLGRSIWEFDLMFDAEDVQTQLSGFSVDERRKFEGLYERRDGSTMSVEVHLLRFNLEGEDRFLAISRD”, the “soluble on expression in E. coli” value was “soluble”.
In the case of “DVLESTIKAQKSRALNRKNLNYKQLLNTFGSLIGLVFLKSYEQGERTYLGMLSRGYSKDSNIKTLGQK”, the “soluble on expression in E. coli” value is reported as “not soluble”.
For “DVRGMSQSVGAVVRGFATADPHVRIAGVILNKVGTDRHAEVCREAVEAVGVRVLGAIPRVDHAEVPSRHLGLITSVELDAAEDAVAAMATMVEEHVDLNALIELADCAYNGPAWDPALAMGMSDAEALDN”, the “soluble on expression in E. coli” value was “not soluble”.
With “DVTGLATGFRDLDKITTGLHPDQLIILAARPAVGKTAFVLNIAQNVGTKMNRPVAIFSLEMGAESLVDRMLASEGMVDAHNLRTGQLTEQDWQNITLAQGTLADAPIYIDDTPGIKVTEIRARARKLDQELEKGLGLIVIDYLQLITGTRPENRQQEVSDISRQLKILAKELGVPVIALSQLSRGVEQRQDKRPVLSDI” the “soluble on expression in E. coli” value was “not soluble”.
For “DWDSREKEAQRVAQRVTARTVSEIEYYHRESTQIAQALVENQARIEGIYKYFSLSMPDYFYWQLERKASPYISVSLYENVDDLYVRNDFVTGVAIAFQDYKEVYVSTKDKRSGEKIRAEDFKPAGNSFAIPVSDPVSDQDLGVIYISLDPAVLYHAIDNTRGHTPMAVTVTSPFDTEIFHMGETVDKESENWLVGLTSHGYQVQVAVPKN”, the “soluble on expression in E. coli” value was “not soluble”.
For “EACGYSDRVLQLTLGNSTITTQEAANSVVAYGRWPEYLRDSEANPVDQPTEPDVAACRFYTLDTVSWTKESRGWWWKLPDALRDMGLFGQNMYYHYLGRSGYTVHVQCNASKFHQGALGVFAVPEMCLAGDSNTTTMHTSYQNANPGEKGGTFTGTFTPDNNQTSPARRFCPVDYLLGNGTLLGNAFVFPHQIINLRTNNCATLVLPYVNSLSIDSMVKHNNWGIAILPLAPLNFASESSPEIPITLTIAPMCCEFNGLRNITLPRLQ”, the “soluble on expression in E. coli” value was “soluble”.
In the case of “EDPGGITRTKGERVDATVDGLPDGVSPEDAAKFTSVLNKLIKDDPELKKSVEVKTLKAASKTKRTKEVVNWRGGGGFQVAHLSPACFDYDPALDRVMLTAAATGETLIESVAANLGFTLLHPDDDYVFDARRGNALLKVVEGVATPQIVDWLASQIQPGETIVLAATTVMDGVRQHLRKAVKGSRVVALPDDIFRYSEGGNK”, the “soluble on expression in E. coli” value is reported as “not soluble”.
With “EEDWVLPSEVEVLESIYLDELQVIKGNGRTSPWEIYITLHPATAEDQDSQYVCFTLVLQVPAEYPHEVPQISIRNPRGLSDEQIHTILQVLGHVAKAGLGTAMLYELIEKGKEILTDNNIPHGQ” the “soluble on expression in E. coli” value was “soluble”.
With “EERLKMSTTTSTQDSGLLKVLLPPFEKKNNVKVDVIAVGTGQALKLGEAGDVDVVFVHARKLEDKFVADGFGVNRKDVMYNDFVIVGPKNDPAGIAKAKTAAEALKLLATKGATFISRGDKSGTHTKELDLWKSAGVDPKGNWYVEAGQGMGPVITMATERRAYTLTDRGTYNAFKGAKTDLVILFQGEKGLFNPYGIMAVNPKKFPHVKYDLAMKLIDYVTGPEGLKIISDYKAHG” the “soluble on expression in E. coli” value was “not soluble”.
With “EGIPWEGNYTSWLEQKDARLQQEASQESARQKTIEKELEWVRKNPKGRQAKSKARMARFEELQNTEHQKRNETNELFIPPGER” the “soluble on expression in E. coli” value was “soluble”.
For “EHRSIMNTLNFLESHYPVTAEDAYLLKTNYVFDVSISELFGWFIGDGRLVILPPNGEKSPQLCMDYIETYKVTHINFVPAMLHVFLEMAKDNKRFTEDGPLKYMMVAGEAFPKVLVKKAVSLFTNCRVENIYGPTEASIYAAYFGCGKGDIASHHTPIGKP”, the “soluble on expression in E. coli” value was “not soluble”.
With “ELKDLQKDEKFWTESSQFKVSVPVGWDINHKEVCFEIGNEQNHTLICGRSGSGKSNFLHVLIQNLAFYYAPNEVQLFLLDYKEGVEFNAYTDPNILEHARLVSVASSVGYGMSFLNWLCKEMQERANLFKQFNVKDLSDYRKHGEIPRLIVVIDEFQVLFSDNKSTKAVEGHLNTLLKKGRSYGVHLILATQTMRGTDINRSIMAQIANRIALSMDAEDSNSILGDDAACELVRPEGIFNNNGGHQKHHTKMSIPKAP” the “soluble on expression in E. coli” value was “not soluble”.
For “ELNKNFDAVVDTAIARWRRSGPVVAMTRPDLKHGRGGLRDFELIKALALGHLCNLPQLDAQHQLLLDARTLLHVHARRSRDVLDPEFAVDVAMDLGFVDRYHLGREIADAARAIDDGLTTALATARGILPRRTGFAFRNASRRPLDLDVVDANGTIELSKKPDLNDPALPLRVAAAAATTGLPVAESTWVRLNECPPLPEP”, the “soluble on expression in E. coli” value was “not soluble”.
For “EMVLLPAPQIPLIMKIMKNHTPTWLPGVPTLYEKIVAEATAKGVEIKGIRNSFSGASTLPVRTVEDWENLTGGLLVEGYGLTETSPVLCGNPMNGNRRPGYIGVPFPDTEIRIANPDNLDETMPDGEAGEVLARGPQIFQGYLNKPEATAATFHGDWFRTGDMGVMEEDGFIRLVSRIKEIIITGGFNVYPAEVEEALIAHPDVDDAAVVGRPRKDGSEDVVACIVLKDGAALDPEGLKTHCRKLLTRYKVPRTFYHFEALNKDQLGKVRRREVQQTLLERLGEK”, the “soluble on expression in E. coli” value was “not soluble”.
In the case of “ENIEVHMLNKGAEGAMVFEPAYIKANPGDTVTFIPVDKGHNVESIKDMIPEGAEKFKSKINENYVLTVTQPGAYLVKCTIHYAMGMIALIAVGDSPANLDQIVSAKKPKIVQERLEKVIASAK”, the “soluble on expression in E. coli” value is reported as “soluble”.
In the case of “EPAQVRLLSSDFVLPGKHQRLAGWAREAGVELRGLRLGIGEAPPGEWLDGGNLLILDTPRPTDRAQVEEALGERLQGGTQPWIRVGGGPPGFGNLPAALGGRLVGYYANGGEANLRRLFEAVRRWHAGLTVDALPAPQPLAQAGFYHPDAPAPFAVLADYLAWGASRWASDAPRIAFLIPRGAIADAQTGAIDELLRRSERHGQAPLAVWFDDSDPEALRKSFAGADVQALVNLQHLQNGPARRAEFLALDVPVLQTLGYRDGNEADWLAAASGVAPRTAAAFLGMPETWGMSDPLVISALENGEPKLMAGQAEALLDKLDRLLRLRRLPAADKHLALMFWNHPEGEKNVAASHLNVPASLARLGEALRAAGYRVATSDESALIDTAQRLLGGYYRPQTLDALYRDGLAASLPLDAYLHWFEALPADLREEMRARWGDPRRHWALRDIDGQRRFVFPAARLGNLLLLPQPPRAGRPGEAYHDSAVPPDHLYLAVYQFVREGFGADALIHFGTHGTQEWLPGKDRGLAVGDYPLRALGDLPVFYPYIQDNVGEAIQARRRGRAVTVSHQTPSFAPAGLYDELRDLHQLIHEYQQLDEGAVRERSAEQIRAAVRAAHMNDDLGWSEAAMHEDFPAFLGVLHDHLHRLAGSAMPLGLHTFGVAASPELRLGTVMQQLGEPYYRALGLDPDELFAADFRALREGRAYRTLQRYLRDGGEIAKVADPRLREQLLRARELDRQLADTGELEALLAGLAGRFVAPGPGGDPIRNPQVPSGRNLFAFEADKVPTRAAYEAGAEAFGQLLESYRAEHQGRAPEKLAFSLWSSETMRHLGIVESQALHALGLRPRWDAGGRLLALDIVPAAELGRPRVDVVLQVTSVYRDQFDGFMRLLAEAIERLAALDEPGNPLARNSQALERRLRERGVEAPLAQRLSRLRLFGNAPGDYGTGVTQLTLDSTRWDDDSALAEQFLGRLQYAYGSRDWGVKLDGGNLFAEQLKGVQAAILSRSSTLNGVLSTDHPFEYLGGLSLAVRHLDGASPALYIADLRQRQPRTTAAAQFLASELRGRYLSPQWIAAMQREGYAGSLEMLDLANNLWGWQAADRIMVRADQWQALHDTFVMDRRELGLAEWFETHNPTAQAQIIARMAEAIRKGYWDASEQTRRELAERWRQLAAAGAGEVGAATTREFIERMAGGFGEAAAQAEGAAASGAGETVSGRVLEEVAPPPSGEPQ”, the “soluble on expression in E. coli” value is reported as “not soluble”.
In the case of “ERSPFPELLPFGEVSVRDSMLYLFVRPDMAGKEVFIPVNGEFLEEVSNLTNASPLNMDIRKTGVRIRMPASMPESFLVLALAFDRNDFVLAGRPQGYPLHMANSSRIYGHSCWDYYTGFKSITGMKWQAVSAPRAIIYTDMEAGKTLRLSVGREEREITLEGGKSEEVSISHDGLSWGKPYVRQVGGVFGMIPDNILRGDSIPLPLTKGWEEMPVGQVEKKPWGEISSCLLVQDIVSDREQTVACHLTFGNGIYVTLNGKQITAELIRETGLAHELTVCLPLQKGKNRLAVKFMNRFGEELIRGVSWPKSYTRYLLPIEGFSLEKVGKKGIPIELRPASVRYQGASASIPNIALL”, the “soluble on expression in E. coli” value is reported as “not soluble”.

— the DeepSol protein solubility set
